Tests used:
Test in all cases: GEMMA (gas-phase electrophoretic mobility macromolecule analysis); DNA-free protein; equilibrated into 100 mM ammonium acetate pH 7.8, diluted to 20 mM ammonium acetate and 0.005% Tween-20; low flow-rate (pressure 2 Psi); non-tagged Kat1 at 0.085 mg/ml
[1] = target: Glutathione S-transferase (GST) alone
[2] = target: Glutathione S-transferase (GST)-tagged Kat1+G (Kluyveromyces lactis hAT-transposase 1) (Kluyveromyces lactis)
[3] = target: non-tagged Kat1 (GST-tag cleaved from GST-Kat1 with thrombin) (Kluyveromyces lactis)

Sequence of Glutathione S-transferase (GST) alone (P08515 2-218): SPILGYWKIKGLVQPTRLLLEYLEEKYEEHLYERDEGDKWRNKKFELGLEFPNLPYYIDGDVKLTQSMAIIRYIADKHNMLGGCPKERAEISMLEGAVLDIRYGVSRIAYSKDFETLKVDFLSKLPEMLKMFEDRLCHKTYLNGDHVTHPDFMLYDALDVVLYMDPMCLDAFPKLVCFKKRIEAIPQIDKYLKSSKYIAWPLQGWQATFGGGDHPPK

Glutathione S-transferase (GST) alone (enzyme)
stoichiometry N [1]: 2

Glutathione S-transferase (GST)-tagged Kat1+G (Kluyveromyces lactis hAT-transposase 1) (enzyme)
stoichiometry N [2]: 6

non-tagged Kat1 (GST-tag cleaved from GST-Kat1 with thrombin) (enzyme)
stoichiometry N [3]: 6
